How the values were obtained:
hLGP2 = molecular target: T1, hLGP2 (Homo sapiens, UniProt Q96C10); assay: malachite green ATPase assay; type: biochemical; conditions: dsRNA-dependent
T1 construct: gene DHX58; construct not described in main text
T1 sequence (Q96C10 1-678): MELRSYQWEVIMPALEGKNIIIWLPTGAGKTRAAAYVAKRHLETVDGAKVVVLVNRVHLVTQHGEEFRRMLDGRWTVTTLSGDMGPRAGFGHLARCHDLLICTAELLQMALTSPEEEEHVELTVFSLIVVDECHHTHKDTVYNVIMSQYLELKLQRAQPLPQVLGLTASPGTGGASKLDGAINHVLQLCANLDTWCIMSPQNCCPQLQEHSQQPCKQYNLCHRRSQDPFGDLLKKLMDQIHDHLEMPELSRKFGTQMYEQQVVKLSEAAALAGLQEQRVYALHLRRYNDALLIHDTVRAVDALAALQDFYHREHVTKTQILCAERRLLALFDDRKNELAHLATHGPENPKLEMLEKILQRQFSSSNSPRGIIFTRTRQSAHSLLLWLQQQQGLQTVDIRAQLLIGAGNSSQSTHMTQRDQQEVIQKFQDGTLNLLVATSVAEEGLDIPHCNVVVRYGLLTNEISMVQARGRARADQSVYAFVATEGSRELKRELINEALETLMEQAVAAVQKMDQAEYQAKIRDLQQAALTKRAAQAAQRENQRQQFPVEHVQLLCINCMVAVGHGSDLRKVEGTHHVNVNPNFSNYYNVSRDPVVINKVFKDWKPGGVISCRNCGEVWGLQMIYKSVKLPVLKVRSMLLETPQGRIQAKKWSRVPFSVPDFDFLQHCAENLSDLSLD

chLGP2 [1] = molecular target: T2, chLGP2 (chicken, UniProt G0YYQ5 1-674); assay: fluorescence anisotropy; same affinity as 5'OH; Fluorescence anisotropy: 5'-FAM 12-mer annealed to unlabeled complement, protein titrated, ex 495 / em 515 nm, fit with Hill coefficient (n=1 for RIG-I); buffer, salt, pH and temperature not in the material; conditions: protein: recombinant; tags: SUMO fusion; label: 5'-FAM on one strand; blunt
T2 sequence: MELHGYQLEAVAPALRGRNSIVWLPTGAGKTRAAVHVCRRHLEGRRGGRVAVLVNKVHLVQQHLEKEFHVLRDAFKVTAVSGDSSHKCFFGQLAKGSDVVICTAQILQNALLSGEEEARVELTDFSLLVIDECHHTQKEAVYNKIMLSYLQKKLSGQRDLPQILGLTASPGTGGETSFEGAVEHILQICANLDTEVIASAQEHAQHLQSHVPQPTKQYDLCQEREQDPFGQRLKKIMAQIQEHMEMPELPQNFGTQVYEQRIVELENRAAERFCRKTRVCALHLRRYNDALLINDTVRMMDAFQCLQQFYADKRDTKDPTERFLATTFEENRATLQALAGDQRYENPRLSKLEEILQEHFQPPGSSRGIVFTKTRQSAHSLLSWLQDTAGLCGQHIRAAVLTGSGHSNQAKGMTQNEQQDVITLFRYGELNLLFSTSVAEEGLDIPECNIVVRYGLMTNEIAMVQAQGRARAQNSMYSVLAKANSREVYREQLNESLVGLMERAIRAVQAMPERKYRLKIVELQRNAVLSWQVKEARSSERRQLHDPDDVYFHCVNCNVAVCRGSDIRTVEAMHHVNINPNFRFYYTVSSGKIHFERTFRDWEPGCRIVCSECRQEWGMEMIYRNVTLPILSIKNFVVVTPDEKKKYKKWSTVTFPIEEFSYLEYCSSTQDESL

hRIG-I = molecular target: T3, hRIG-I (human, UniProt O95786 1-925); assay: fluorescence anisotropy; ADP:AlF4; Fluorescence anisotropy: 5'-FAM 12-mer annealed to unlabeled complement, protein titrated, ex 495 / em 515 nm, fit with Hill coefficient (n=1 for RIG-I); buffer, salt, pH and temperature not in the material; conditions: protein: recombinant; label: 5'-FAM on one strand; blunt
T3 sequence: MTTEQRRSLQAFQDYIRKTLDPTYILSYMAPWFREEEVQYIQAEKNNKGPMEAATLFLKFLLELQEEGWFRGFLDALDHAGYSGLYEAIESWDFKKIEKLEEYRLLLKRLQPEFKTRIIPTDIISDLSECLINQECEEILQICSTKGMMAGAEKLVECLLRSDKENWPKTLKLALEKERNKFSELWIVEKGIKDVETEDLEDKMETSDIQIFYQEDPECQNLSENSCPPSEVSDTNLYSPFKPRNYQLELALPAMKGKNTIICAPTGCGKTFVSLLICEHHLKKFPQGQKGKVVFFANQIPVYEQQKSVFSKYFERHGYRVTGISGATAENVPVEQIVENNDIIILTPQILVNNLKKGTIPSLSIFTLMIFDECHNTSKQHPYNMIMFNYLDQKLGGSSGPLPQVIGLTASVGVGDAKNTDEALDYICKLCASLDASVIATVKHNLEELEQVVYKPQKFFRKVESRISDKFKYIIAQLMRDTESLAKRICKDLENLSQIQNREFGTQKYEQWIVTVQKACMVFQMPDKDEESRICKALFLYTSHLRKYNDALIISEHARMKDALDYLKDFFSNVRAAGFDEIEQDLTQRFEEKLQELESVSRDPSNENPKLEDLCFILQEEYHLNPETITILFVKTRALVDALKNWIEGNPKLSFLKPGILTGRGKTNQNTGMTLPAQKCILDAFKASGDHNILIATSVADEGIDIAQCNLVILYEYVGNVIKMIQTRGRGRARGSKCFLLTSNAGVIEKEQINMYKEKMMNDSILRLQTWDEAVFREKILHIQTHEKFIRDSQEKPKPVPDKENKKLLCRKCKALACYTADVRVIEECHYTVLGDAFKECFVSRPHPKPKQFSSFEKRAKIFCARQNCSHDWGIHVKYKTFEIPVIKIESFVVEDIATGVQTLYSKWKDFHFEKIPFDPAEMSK

chLGP2 [2] = molecular target: T2, chLGP2; assay: crystal structure; ADP:AlF4, Mg2+; Fluorescence anisotropy: 5'-FAM 12-mer annealed to unlabeled complement, protein titrated, ex 495 / em 515 nm, fit with Hill coefficient (n=1 for RIG-I); buffer, salt, pH and temperature not in the material; conditions: protein: recombinant, tags: SUMO fusion
chLGP2 [3] = molecular target: T2, chLGP2; assay: crystal structure; no nucleotide; Fluorescence anisotropy: 5'-FAM 12-mer annealed to unlabeled complement, protein titrated, ex 495 / em 515 nm, fit with Hill coefficient (n=1 for RIG-I); buffer, salt, pH and temperature not in the material; conditions: protein: recombinant; tags: SUMO fusion; 2 copies of self-complementary strand
chLGP2 [4] = molecular target: T2, chLGP2; assay: fluorescence anisotropy; Fluorescence anisotropy: 5'-FAM 12-mer annealed to unlabeled complement, protein titrated, ex 495 / em 515 nm, fit with Hill coefficient (n=1 for RIG-I); buffer, salt, pH and temperature not in the material; conditions: protein: recombinant; tags: SUMO fusion; label: 5'-FAM on one strand; 5' overhang
chLGP2 [5] = molecular target: T2, chLGP2; assay: fluorescence anisotropy; affinity independent of bound nucleotide; Fluorescence anisotropy: 5'-FAM 12-mer annealed to unlabeled complement, protein titrated, ex 495 / em 515 nm, fit with Hill coefficient (n=1 for RIG-I); buffer, salt, pH and temperature not in the material; conditions: protein: recombinant; tags: SUMO fusion; label: 5'-FAM on one strand; blunt
[6] = blunt, 2 copies of self-complementary strand

Nc1ncnc2c1ncn2[C@@H]1O[C@H](COP(=O)(O)OP(=O)(O)OP(=O)(O)O)[C@@H](O)[C@H]1O [ATP]
malachite green ATPase assay (hLGP2): both chLGP2 and hLGP2 ATPase activity is strictly dsRNA dependent

B1: 5'ppp 12-mer blunt dsRNA (anisotropy) (dsRNA)
RNA 1: GGGCUCCACAUG
RNA 2: CAUGUGGAGCCC
modifications: 5' triphosphate
binding result (chLGP2 [1]): binds | Kd (hRIG-I): ~1 nM

B2: 5'p 10-mer palindromic dsRNA (dsRNA)
RNA 1: GGUACGUACC
RNA 2: GGUACGUACC
modifications: 5' monophosphate
binding result (chLGP2 [2]; [6]): binds

B3: 5'ppp 10-mer palindromic dsRNA (dsRNA)
RNA 1: GGUACGUACC
RNA 2: GGUACGUACC
modifications: 5' triphosphate
binding result (chLGP2 [2]; [6]): binds

B4: 5'ppp 26-mer hairpin with 3' GG overhang (structured_RNA)
RNA: GGAGCGUGCCGUACGGCACGCUCCGG
modifications: 5' triphosphate
binding result (chLGP2 [2]; hairpin, 3' overhang 2 nt (GG)): binds

B5: 5'p 12-mer palindromic dsRNA (dsRNA)
RNA 1: GGUAGCGCUACC
RNA 2: GGUAGCGCUACC
modifications: 5' monophosphate
binding result (chLGP2 [3]): binds

B6: 5' overhang dsRNA (anisotropy) (dsRNA)
RNA 1: AACCGGUCACGC
RNA 2: AAGCGUGACCGG
binding signal (chLGP2 [4]): ~2 fold lower affinity than blunt end

B7: 5'OH 12-mer blunt dsRNA (anisotropy) (dsRNA)
RNA 1: GGGCUCCACAUG
RNA 2: CAUGUGGAGCCC
binding result (chLGP2 [5]): binds

— PMC4885022, “Structural Analysis of dsRNA Binding to Anti-viral Pattern Recognition Receptors LGP2 and MDA5” (Molecular Cell, 2016)
